US20250297232A1, “BACTERIAL MYELOPEROXIDASE-CATALASE AND APPLICATIONS THEREOF” (priority 2022, published 2025)
Substitutions are numbered along the chain they refer to. Numbers in names are those of the source. Entries after “also recorded” stand apart in the source; their conditions may differ.

How the values were obtained:
E. coli ATCC 25922 = experiment: Microbicidal activity: counting colonies on Petri dishes; assay type: cell-based; conditions: 1 h contact with 1.10^6 CFU/mL, 25 mM SCN^−, pH7.4; enzyme alone: wt RbMPO 300 nM or GOxaspniger 25 nM
Description: 10 mL of TSB medium (pH7.4) was inoculated with a freshly obtained colony of E. coli ATCC 25922, and the culture was incubated at 37° C. and 190 rpm overnight. In the morning, 25 mL of TSB medium were inoculated with the previous day's pre-culture to obtain an OD620 nm of 0.07 at TO. When the bacterial culture reached the exponential phase, the bacterial solution was diluted 10-fold in TSB in order to reach 1.10^6 CFU/mL. This dilution was then contacted with the enzyme solution for 1 hour (in a final volume of 1 mL). Further dilutions were then made (10^−1, 10^−4, 10−5, 10^−6). 100 μL of these solutions were spread on a Petri dish containing TSB agar medium and placed at 37° C. overnight. The next day, the surviving colonies were counted and the number of CFU/mL was calculated using the formula below: […]

[1] = Heme reconstitution of apo wt and mutated RbMPOs (tryptophan fluorescence quenching); assay type: binding; conditions: 1 μM enzyme; for k2: heme reconstitution of apo enzyme, 50 mM sodium phosphate pH7.5, 25° C.
Description: Sample dilutions were performed in a 50 mM pH7.5 sodium phosphate buffer.

[2] = Steady-state kinetics by stopped-flow, NaSCN (hypothiocyanate formation, 240 nm); assay type: biochemical; conditions: for activity in presence of SCN^− (NaSCN range), in words / k2: 300 nM enzyme, 79 μM H2O2; for substrate specificity: from steady-state NaSCN, NaBr and NaCl ranges; for k2: NaSCN range, linear increase of kss
Description: (§1) pH- and temperature-dependent studies were carried out for each substrate.
(§2) These temperatures were reached by using a stopped-flow coupled to a cryostat.
(§3) For temperature and pH measurements, RbMPO was set at the same concentration as in the determination of steady state kinetics parameters.

[3] = Chlorination activity with APF probe, NaCl range; assay type: biochemical; conditions: linear increase of kss, 1 μM RbMPOs, 79 μM H2O2, 10 μM APF
Text: The chlorination activity of myeloperoxidases can be determined using the aminophenyl fluorescein (APF) probe. One can indeed detect the oxidation of APF (non-fluorescent) by HOCl into fluorescein, a fluorescent molecule that is detectable at λex=485 nm and λem=525 nm. According to such test, the fluorescence measured is proportional to the quantity of fluorescein, which itself is proportional to the quantity of HOCl produced by the myeloperoxidase.
Measurements of chlorination activity were herein performed in Corning 384-well clear-bottom (flat-bottom) plates with a reaction volume of 20 μL, in triplicate at 37° C., and in a 50 mM NaPi buffer at pH7.5. […] A 10 to 30 minutes kinetic was performed for each range value and the fluorescence intensity was compared to that of the standard fluorescein range. Thus, the measured fluorescence is proportional to the amount of fluorescein, which in turn is proportional to the amount of HOCl produced by the RbMPOs.
The slopes were measured at the onset of the reaction in order to be in initial velocity. From these values, it was possible to calculate the kss with the following equation: […]
where slopes in FI.pmoles^−1 corresponds to the slope of the fluorescein standard range: 2.95 10^6+1.13 10^5.

[4] = Steady-state kinetics by stopped-flow, NaBr (Tau-NHBr formation, 289 nm); assay type: biochemical; conditions: 300 nM enzyme, 79 μM H2O2; for kss/[Br^−]: NaBr range, linear (k2)
Description: as §1, §2, §3

B1: GOxaspniger: glucose oxidase isolated from Aspergillus niger (e.g. CAS number: 9001-37-0) (protein, UniProt P13006 17-605, looked up)
Glucose oxidase: LPHYIRSNGIEASLLTDPKDVSGRTVDYIIAGGGLTGLTTAARLTENPNISVLVIESGSYESDRGPIIEDLNAYGDIFGSSVDHAYETVELATNNQTALIRSGNGLGGSTLVNGGTWTRPHKAQVDSWETVFGNEGWNWDNVAAYSLQAERARAPNAKQIAAGHYFNASCHGVNGTVHAGPRDTGDDYSPIVKALMSAVEDRGVPTKKDFGCGDPHGVSMFPNTLHEDQVRSDAAREWLLPNYQRPNLQVLTGQYVGKVLLSQNGTTPRAVGVEFGTHKGNTHNVYAKHEVLLAAGSAVSPTILEYSGIGMKSILEPLGIDTVVDLPVGLNLQDQTTATVRSRITSAGAGQGQAAWFATFNETFGDYSEKAHELLNTKLEQWAEEAVARGGFHNTTALLIQYENYRDWIVNHNVAYSELFLDTAGVASFDVWDLLPFTRGYVHILDKDPYLHHFAYDPQYFLNELDLLGQAAATQLARNISNSGAMQTYFAGETIPGDNLAYDADLSAWTEYIPYHFRPNYHGVGTCSMMPKEMGGVVDNAARVYGVQGLRVIDGSIPPTQMSSHVMTVFYAMALKISDAILEDYASMQ
surviving bacteria (E. coli ATCC 25922): 1,015,000±21,213 CFU/mL

B2: H407A: RbMPO with active site mutation H407A, generated by site-directed mutagenesis (protein)
chain: MLFWSKRTRKHPGRKRRRLRSEQLESRQLLAADFGGYRHNIYDAEDVNDDGRVSAIDALLVINAMTSETSRDENVFTDVNGDGRRSALDALRVINRIERGDVFPIDTSGDEDLNTLLPEMPSEVRSIDGSGNNPNDHLWGSVGQRLIRMAPAAYGDGISTLAGANRPSAREVSNVLSAMNTSQVLNDRGLSAFVYVWGQFIDHDLGLTESDEHGEAIDISVPEGDLWFDPMGSGEAVIPMTRTPIADGTGTSVGNPAQQFNQITAFIDGSMVYGSDAATAERLRTFAGGRLAISDNGLLPMDESGMVIAGDVRASENVGLTAIQTLFVREHNRLADEIFAADPEATDEEIYQRARLVVASLIQSITYNEFLPALLGQRAMDSYRGYDASVNPGIANEFSTAAFRLGASTLRDEVGFMSNDGRESKDEMELKDAFFHASMLEETGIDSLLKFDASVQAQEIDLAVVDSLRNFLFGPPGAGGLDLVAMNIQRGRDHGLSDYNTTRQAYGLDRVETFDQITGDVELQQKLASLYGTVDNIDLWVGLMAEDHQHDASVGELTGLIIADQFQRTRDGDRFFYKNVLTDSEVESIERSTLADLIERNTSVDGLQENVFFMQVELRGRVILASSIPPNTMPSEVREEEIRGVSGMAIELIDASGKLVDSTVSDQHGNYRFRALSETGDYQVRLSESGEAMDVLVAHGAERIRGLDFIVLA
k2 [1]: 1320 ± 18.9 M⁻¹ s⁻¹ | activity in presence of SCN^− (NaSCN range), in words [2]: not active; also recorded: scatter plot | substrate specificity [2]: greater specificity for Br^− than for SCN^−

B3: E316A: RbMPO with active site mutation E316A, generated by site-directed mutagenesis (protein)
chain: B2 chain with E316A, A407H
k2 [1]: 418+34 M−1 · s−1 | k2 [3]: no catalytic constant could be determined; also recorded: scatter plot | k2 [2]: 1936+374 M^−1 · s^−1 | substrate specificity [2]: active only for SCN^− | activity with Br^− (NaBr range), in words [4]: lack of RbMPO activity

B4: D202A: RbMPO with active site mutation D202A, generated by site-directed mutagenesis (protein)
chain: B2 chain with D202A, A407H
substrate specificity [2]: higher specificity for SCN^− than Br^−

B5: D202A, E316A: double mutant of RbMPO with active site mutations D202A and E316A (protein)
chain: B2 chain with D202A, E316A, A407H
Kd ([1]; heme reconstitution, saturation of active site by heme, pH7.5, 25° C.): 10.9 µM | substrate specificity [2]: active only for SCN^− | activity with Br^− (NaBr range), in words [4]: lack of RbMPO activity

B6: H203A: RbMPO with active site mutation H203A, generated by site-directed mutagenesis (protein)
chain: B2 chain with H203A, A407H
k2 [1]: 1840 ± 167 M⁻¹ s⁻¹ | k2 [3]: no catalytic constant could be determined; also recorded: scatter plot | substrate specificity [2]: higher specificity for SCN^− than Br^− | kss/[Br^−] [4]: 73.94 ± 15.07 M⁻¹ s⁻¹

B7: N317M: RbMPO with active site mutation N317M, generated by site-directed mutagenesis (protein)
chain: B2 chain with N317M, A407H
k2 [2]: 1074 ± 53 M⁻¹ s⁻¹ | substrate specificity [2]: higher specificity for SCN^− than Br^−

B8: Q199A: RbMPO with active site mutation Q199A, generated by site-directed mutagenesis (protein)
chain: B2 chain with Q199A, A407H
k2 [1]: 1720 ± 133 M⁻¹ s⁻¹ | activity in presence of SCN^− (NaSCN range), in words [2]: not active | substrate specificity [2]: only active for Br | kss/[Br^−] [4]: 78.19 ± 22.00 M⁻¹ s⁻¹
